Earlier results in PMC3889014.

Target: Cys145 (UniProt position 145, PILIPCHRVVC)

O6-alkylguanine DNA-alkyltransferase (AGT; MGMT) (Homo sapiens (inferred; not stated in the sentence with the pKa))
pKa: 4–5
